A short description of this data set: yeast display, Sf9 membrane polyspecificity reagent, FACS + sequencing; frameworks hold sequencing errors. The method in brief:
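Galactose induction of a Saccharomyces cerevisiae BJ5465 synthetic nanobody display library ran 36–48 hours. The cells were then stained for 1 hour at 4 °C with 10% biotinylated, detergent-solubilized Sf9 membrane reagent, pulled down on streptavidin microbeads and FACS-sorted into low and high (top ~1%) gates on expression and reagent-binding fluorescence. Labels for polyreactivity follow the gate of origin.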
As to “QVQLVESGGGLVQAGGSLRLSCAASGSIRYYAMGWYRQAPGKERELVAAISSRGTNTYYADSVKGRFTISRDNAKNTVYLQMNSLKPEDTAVYYCIAVVGLGYNYWGQGTQVTVSS”, the “polyreactivity (PSR sort gate)” value is “high polyreactivity”.

“QVQLVESGGGLVQAGGSLRLSCAASGSISDTYGLGWYRQAPGKERELVASITWSSGSTDYADSVKGRFTISRDNAKNTVYLQMNSLKPEDTAVYYCATYEPFYSFFFRGIYDYWGQGTQVTVSS”: the “polyreactivity (PSR sort gate)” value was “low polyreactivity”.

“QVQLVESGGGLVQAGGSLRLSCAASGSISDVYAMGWYRQAPGKERELVAAITSGASTYYADSVKGRFTISRDNAKNTVYLQMNSLKPEDTAVYYCAADSDSQWGMDYWGQGTQVTVSS”: the “polyreactivity (PSR sort gate)” value is given as “low polyreactivity”.

With “QVQLVESGGGLVQAGGSLRLSCAASGSISFINAMGWYRQAPGKERELVAAISGSGGSTYYADSVKGRFTISRDNAKNTVYLQMNSLKPEDTAVYYCAADYRIHWYIAYGYWGQGTQVTVSS”, the “polyreactivity (PSR sort gate)” value was “low polyreactivity”.

Take “QVQLVESGGGLVQAGGSLRLSCAASGSISFSNAMGWYRQAPGKERELVAAISWSGGRTYYADSVKGRCTISRDNAKNTVYLQMNSLKPEDTAVYYCAADDFRYGRQVLGLNDYNYWGLGTQVTVSS”: the “polyreactivity (PSR sort gate)” value is recorded as “low polyreactivity”.

Consider “QVQLVESGGGLVQAGGSLRLSCAASGSISGWYAMGWYRQAPGKERELVADISSIAGSTYYADSVKGRFTISRDNAKNTVYLQMNSLKPEDTAVYYCAADDAAWPYSWWGFDYWGQGTQVTVSS”, for which the “polyreactivity (PSR sort gate)” value is “low polyreactivity”.

On to “QVQLVESGGGLVQAGGSLRLSCAASGSISGYYAMGWYRQAPGKESELVASIRYTGARTYYADSVKGRFTISRDNAKNTVYLQMNSLKPEDTAVYYCAADVKRDRVWGGDYWGQGTQVTVSS”, for which the “polyreactivity (PSR sort gate)” value is “low polyreactivity”.

Consider “QVQLVESGGGLVQAGGSLRLSCAASGSISGYYDMGWYRQAPGKEREFVAAISLSTTSTYYADSVKGRFTISRDNAKNTVYLQMNSLKPEDTAVYYCATDIVGPHFDYWGQGTQVTVSS”, for which the “polyreactivity (PSR sort gate)” value is given as “low polyreactivity”.

Consider “QVQLVESGGGLVQAGGSLRLSCAASGSISGYYDMGWYRQAPGKERELVAASSWNGADTYYADSVKGRFTISRDNAKNTVYLQMNSLKPEDTAVYYCAAERENGDHYRYYYWGQGTQVNVSS”, for which the “polyreactivity (PSR sort gate)” value is “low polyreactivity”.

Turning to “QVQLVESGGGLVQAGGSLRLSCAASGSISIKNAMGWYSQAPGKERELVATITYNGGSTYYADSVKGRFTISRDNAKNTVYLQMNSLKPEDTAVYYCSAGYLYYAEYDYWGQGTQVTVSS”, the “polyreactivity (PSR sort gate)” value is listed as “low polyreactivity”.

Consider “QVQLVESGGGLVQAGGSLRLSCAASGSISKGYAMGWYRQAPGKERELVARISGDGGSTYYADSVKGRFTISRDNAKNTVYLQMNSLKPEDTAVYYCNARAYYGIRYYSWGQGTQVTVSS”, for which the “polyreactivity (PSR sort gate)” value is listed as “high polyreactivity”.

Turning to “QVQLVESGGGLVQAGGSLRLSCAASGSISKINAMGWYRQAPGKERELVAAINTGDSTYYADSVKGRFTISRDNAKNTVYLQMNCLKPEDTAVYYCAAEGSPTGYDYWGQGTQVTVSS”, the “polyreactivity (PSR sort gate)” value was “low polyreactivity”.

Consider “QVQLVESGGGLVQAGGSLRLSCAASGSISLAYAMGWYRQAPGKERELVAAISFRTGRTFYADSVKGRFTISRDNAKNTVYLQMNSLKPEDTAVYYCAAENLDFYFEEYWGQGTQVTVSS”, for which the “polyreactivity (PSR sort gate)” value is given as “high polyreactivity”.

Take “QVQLVESGGGLVQAGGSLRLSCAASGSISPQNVMGWYRQAPGKERELVAAITGGGSTNYADSVKGRFTISRDNAKQTVYLQLNSLKPEDTAVYYCNADYFQDRLDYWGQGTQVTVSS”: the “polyreactivity (PSR sort gate)” value is recorded as “low polyreactivity”.

Consider “QVQLVESGGGLVQAGGSLRLSCAASGSISRFNTMGWYRQAPGKERELVAAITVSGGSTYYADSVKGRFTISRDNAKNTVYLQMNSLKPEDTAVYYCAKEAWRYRLNFRYNYWGQGTQVTVSS”, for which the “polyreactivity (PSR sort gate)” value was “low polyreactivity”.

On to “QVQLVESGGGLVQAGGSLRLSCAASGSISSKNAMGWYRQPPGKERQFDAVISGTGGSTYYADSVKGRFTISRDNAKNTVYLQMNSLKPEDTAVYYCAAAASSIVSYGYTWTYGYWGLGTQVTVSS”, for which the “polyreactivity (PSR sort gate)” value is listed as “low polyreactivity”.

For “QVQLVESGGGLVQAGGSLRLSCAASGSISTNYAMGWYRQAPGKERELVAAISSSGGSTYYADSVKGRFTISRDNAKNTVYLQMNSLKPEDTAVYYCRYKFGYWGQGTQVTVSS”, the “polyreactivity (PSR sort gate)” value is listed as “high polyreactivity”.

Regarding “QVQLVESGGGLVQAGGSLRLSCAASGSISVYNAMGWYRQAPGKVRELVAAISWSGGRTSYADSVKGRFTISRDHAKNTVYLQMNSLKPEDTAVYYCAADELTGLWDEDYWGPGTQVTVSS”, the “polyreactivity (PSR sort gate)” value is reported as “low polyreactivity”.

In the case of “QVQLVESGGGLVQAGGSLRLSCAASGSISWVYAMGWYRQAPGKERELVAAISNSGGSTYYADSVKGRFTISRDNAKNTVYLQMNSLKPEDTAVYYCAADGYFYYSAFWASPYEYWGQGTQVTVSS”, the “polyreactivity (PSR sort gate)” value is given as “high polyreactivity”.

“QVQLVESGGGLVQAGGSLRLSCAASGSISYYNAMGWYRQAPGKERELVAAITYSAGGTYYADSVKGRFTISRDNAKNTVYLQMNSLKPEDTAVYYCAADAYKHVAYGGVYWYYYWGLGTQVTVSS”: the “polyreactivity (PSR sort gate)” value is “high polyreactivity”.

For the sequence “QVQLVESGGGLVQAGGSLRLSCAASGSISYYNAMGWYRQAPGKERELVATITDSGGSTYYADSVKGRFTISRDNAKNTVYLQMNSLKPEDTAVYYWAVDYSEWYSIYEYWGQGTQVTVSS”, the “polyreactivity (PSR sort gate)” value was “low polyreactivity”.

Regarding “QVQLVESGGGLVQAGGSLRLSCAASGSIVAGNAMGWYIQAPGKEREMVAAITWRSGRTYYADSVKGRFTISRDNAKNTVNLQMNSLKPVDTAVYYCARGRYGYTAPVRRWYFRYDYWGQGTQVTVSS”, the “polyreactivity (PSR sort gate)” value is on record as “high polyreactivity”.

With “QVQLVESGGGLVQAGGSLRLSCAASGSIVDNRGWYRQAPGKERELVAAISSSGDSTYYADSVKGRFTISRDNAKNTVYLQMNSLKPEDTAVYYCAADFYYYKKQYDYWGQGTQVTVSS”, the “polyreactivity (PSR sort gate)” value is “low polyreactivity”.

Regarding “QVQLVESGGGLVQAGGSLRLSCAASGSIVGYAMGWYRQAPGKERELVAAISSGGSTNYADSVKGRFTISRDNAKNTVYLQMNSLKPEDTAVYYCAKSWRWRANLRGYYWGQGTQVTVSS”, the “polyreactivity (PSR sort gate)” value is recorded as “high polyreactivity”.

On to “QVQLVESGGGLVQAGGSLRLSCAASGSIVRSYAMGWYRQAPGKERELVASITDGTITNYADSVKGRFTISRDNAKNTVYLQMISLKPDDTAVYYCAAGTLAHAYVVRPIEMDYWGQGTQVTVSS”, for which the “polyreactivity (PSR sort gate)” value is reported as “low polyreactivity”.

As to “QVQLVESGGGLVQAGGSLRLSCAASGSIVSAYVMGWYRQAPGKERELVAAITRSGGSTYYADSVKGRFTISRDNAKNTVYLQMNSLKPEDTAVYYCAADRRWFAYWFDYWGQGTQVTVSS”, the “polyreactivity (PSR sort gate)” value is given as “low polyreactivity”.

As for “QVQLVESGGGLVQAGGSLRLSCAASGSIVVPYTMGWYRQAPGKEMELVAAINSSDDSTFYADSVKGRFTISRENAKNTVYIKMNSLKPEDTAVYYCNATGYARWYTGDYWGQGTQVTVSS”, the “polyreactivity (PSR sort gate)” value is on record as “low polyreactivity”.

On to “QVQLVESGGGLVQAGGSLRLSCAASGSIVYYNAMGWYRQAPGKERELVASISNGGSTDYADSVKGRFTISRDNAKNTVYLQMNSLKPEDTAVYSCNAKQSYRSEYDYWGQGTQVTVSS”, for which the “polyreactivity (PSR sort gate)” value is given as “low polyreactivity”.

Regarding “QVQLVESGGGLVQAGGSLRLSCAASGSIYGFYAKGWYRQAPAKESELVAAIDSGDSSNYADSVKGRFTISRDNAKNTVYLQMKSLIPEDTAVYYWNAEAWWYFCFDYWGQGTQVTVSS”, the “polyreactivity (PSR sort gate)” value is reported as “low polyreactivity”.

Take “QVQLVESGGGLVQAGGSLRLSCAASGSIYGRYVMGWYRQSPGKERELVATISSGGSTYYADSVKGRFTISRDNAKNTVYLQMNSLKPEDTAVYYCAASYSRFVDWIGDPGYDYWGQGTQVTVSS”: the “polyreactivity (PSR sort gate)” value is “low polyreactivity”.
